From publication PMC9463536 (The Journal of Biological Chemistry, 2022)

What was measured:
[1] = target: T1, human claudin-4, untagged (human, UniProt O14493); test: SEC; conditions: both partners purified
T1 construct: also called hCLDN-4

cCpE-His10 (wild type) = target: T2, cCpE-His10 (wild type) (Clostridium perfringens, UniProt P01558); test: BLI; conditions: both partners purified
T2 construct: not shown: His10, C-terminal, kept

T1 sequence (O14493 whole entry): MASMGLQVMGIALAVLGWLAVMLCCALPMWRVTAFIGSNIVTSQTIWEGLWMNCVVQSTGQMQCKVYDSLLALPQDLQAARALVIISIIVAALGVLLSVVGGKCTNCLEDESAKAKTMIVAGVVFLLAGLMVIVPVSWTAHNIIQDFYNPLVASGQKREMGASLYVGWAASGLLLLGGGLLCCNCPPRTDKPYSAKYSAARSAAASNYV

Binder | binding result [1] | Kd (cCpE-His10 (wild type)) [nM] | koff (cCpE-His10 (wild type)) [s⁻¹] | kon (cCpE-His10 (wild type)) [M⁻¹ s⁻¹]
COP-3 (CpE Obstructing Protein 3), synthetic antigen-binding fragment (Fab, V domains shown, also called sFab; source: E. coli BL21-Gold, purified (MabSelect SuRe, Resource S)) VH: EVQLVESGGGLVQPGGSLRLSCAASGFNFYSSSIHWVRQAPGKGLEWVAYISSYSGYTYYADSVKGRFTISADTSKNTAYLQMNSLRAEDTAVYYCARGYGYFDYNFSVGYALDYWGQGTLVTVSS VL: DIQMTQSPSSLSASVGDRVTITCRASQSVSSAVAWYQQKPGKAPKLLIYSASSLYSGVPSRFSGSRSGTDFTLTISSLQPEDFATYYCQQSHPWYYPITFGQGTKVEIK | no binding | 138 ± 6.2 | 0.001 | 10000
COP-2 (CpE Obstructing Protein 2), synthetic antigen-binding fragment (Fab, V domains shown, also called sFab; source: E. coli BL21-Gold, purified (MabSelect SuRe, Resource S)) VH: EVQLVESGGGLVQPGGSLRLSCAASGFNFSSSSIHWVRQAPGKGLEWVASISSYSGYTSYADSVKGRFTISADTSKNTAYLQMNSLRAEDTAVYYCARYWSWYNSSHYIYSALDYWGQGTLVTVSS VL: DIQMTQSPSSLSASVGDRVTITCRASQSVSSAVAWYQQKPGKAPKLLIYSASSLYSGVPSRFSGSRSGTDFTLTISSLQPEDFATYYCQQSYEWAPVTFGQGTKVEIK | no binding | 67.6 ± 11.7 | 0.00048 | 7200
